assay: yeast display, Sf9 membrane polyspecificity reagent, FACS + sequencing; frameworks hold sequencing errors
Method in brief: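 Genes from sorted yeast were amplified by colony PCR, read by MiSeq 2 × 250 sequencing and filtered on CDR length. These cells carried a synthetic nanobody library in Saccharomyces cerevisiae BJ5465 and were sorted by FACS into low and high (top ~1%) gates on anti-HA and streptavidin fluorescence. Polyreactivity is labelled according to the gate of origin.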

Which “polyreactivity (PSR sort gate)” value does the source give for “QVQLVESGGGLVQAGGSLRLICAASGFIFRNYARGWYRQAPGKERELVAAITRSGTSTYYADSVKGRFTISRDNAKNTVYLQMNSLKPEDTAVYYCNAGWGLRLSWLGNYWGQGTQVTVSS” here?
Its value is “high polyreactivity”.

Which “polyreactivity (PSR sort gate)” value does the source give for “QDQLVESGGGLVQAGGSLRLSCAATGRTFYFYTMGWYRQAPGKERELVATAITSGGSTNYADSVKGRFTISRDNAKNTVYLQMNSLKPEDTAVYYCAATLYWGWVFSYTSFDYWGQGTQVTVSS” here?
The value was “low polyreactivity”.

With “QVQLEESGVGLLQAGGSLRLSCAASGFIFCSNDMGWYRQAPGKERELVAAITRGGNTNYADSVKGRFTISRDNAKNTVYLQLNSLKPEDTAVYYCATEGYGAVQPSYEGGYWGQGTQVTVSS” as the sequence, how does the “polyreactivity (PSR sort gate)” value read?
Its value is “low polyreactivity”.

With “QVQLVESGGGLVQAGASLRLSCAASGSTFLRNAMGWYRQAPGKKGSWVATISYDGDSTYYADSVKGRFTISRDNTKNTVYLQMNSLKPEDPAVYYCAASYSLTFWDKDDYWGQGTQVSVSS” as the sequence, how does the “polyreactivity (PSR sort gate)” value read?
Its value is “low polyreactivity”.

With “QVQLVESGGGLVQAGGSLRLSCAASGFTFPLNAMGWYRQAPGKERELVAAISGSGGSTYYADSVKGRFTISRDNAKNTVYLQMNSLKPEDTAVYYCAAGIYYWGQGTQVTVSS” as the sequence, how does the “polyreactivity (PSR sort gate)” value read?
The value was “low polyreactivity”.

Which “polyreactivity (PSR sort gate)” value does the source give for “QVQLVESGGGLVQAGGSLRLSCAASGRIFSRYTMGWYRQAPGKERELVAAISYSGGRTYYADSVKGRFTISRDNAKNTVYLQMYSLKPEDTAVYYCAAPRSVVGAYGFYYWGQGTQVTVSS” here?
Its value is “high polyreactivity”.

Which “polyreactivity (PSR sort gate)” value does the source give for “QVQLVESGGGLVQAGGSLRLTCAASGRIFWINDMVWNRQAPGKESELVAAIRSIGGSTYYADSVKGRFRISRDNAKNTVYLQMNSLKPEDTSVYYCAAKSSPKFRGRYYYWGQGTQVTVSS” here?
Its value is “low polyreactivity”.

With “QVQLVESWGGLVQAGGSLRLSCAASGSTFAQNTMGWYRQAPGKERELVATISDGGGSTYYADSVKGRFTISRDNAKNTVYLQMNSLKPEDTAVYYCNTDRFWPSYYWGQGTQVTVSS” as the sequence, how does the “polyreactivity (PSR sort gate)” value read?
Its value is “low polyreactivity”.

With “QVQLVESGGGLVQAGGSLRLSCAPSAFTFKYYSMGWYRHTPGKESELVAVISWSGGSTYYADSVKGRFTISRDYAKNTVYLHMNSQKPEDTAVYYCAAYERKFYTVSRWYKLDYWGQGTQVTVSS” as the sequence, how does the “polyreactivity (PSR sort gate)” value read?
The value was “high polyreactivity”.

With “QVQVVESGGGLVQAGGSLRLSCAASGSIFFFYAMGWYRQAPGQERELVAAITGSGGSTYYADSVKGRFTISRDKAKNTVYLQMNSLKPEDPAVYYCAVRTSRQVYSYGGYESWGHGTQVTVSS” as the sequence, how does the “polyreactivity (PSR sort gate)” value read?
Its value is “low polyreactivity”.

With “QVQLVESGGGLVQAGGSLRLSCAASGSIFVGNAMGWYRQAPVKERELVADINVTGGTTYYADSVKGRFTISRDNAKNTVYLQMNSLKPEDTAVYYCAARQSIFYSWTGVEYYYWGQGTQVTVSS” as the sequence, how does the “polyreactivity (PSR sort gate)” value read?
Its value is “low polyreactivity”.

With “QVQLVESGGGLVQAGGSLRLTCAASGFIVKYNAMGWYRQAPGKERELVAAITSTGSTNYADSVKGRFTISRDNAKNTVYFQMISLKPEDNAVYYCAAYWRSRNRFNWGQGTQVTVTS” as the sequence, how does the “polyreactivity (PSR sort gate)” value read?
The value was “high polyreactivity”.

For “QVQLVDSGGALVQAGGSLRLSCAASGFIFRDNAMGWYRQAPGKESELVAAISSRGGSTYYADSVKGRFTISRDYAKNSVYLQMNRLKPEDTAVYYCAIRPYKSRVQMDCWGQGTQVTVSS”, which “polyreactivity (PSR sort gate)” value is on record?
Its value is “high polyreactivity”.

With “QVQLVESGGGLVQAGGSLRLSCAASGRTFSYYAMGWYRQAPGKERELVATISWSGSTYYADSVKGRFTLSRDNAKNTVYLQMNSLKPEDTAVYYCAARYRYAGWYSVWYDYWGQGTQVSVSS” as the sequence, how does the “polyreactivity (PSR sort gate)” value read?
The value was “high polyreactivity”.

With “HVKLQESGDGLVQAGGSLRLSSAPSGTIYSDYGMGGSRQAPGKERELLAGISDGCNTNYTDSVKGRFTISRDNAHRVSADEQPETGGYRGVLLRGSERWLLFYVYWGQGTQVTVSS” as the sequence, how does the “polyreactivity (PSR sort gate)” value read?
Its value is “high polyreactivity”.

For “QVQLVESGGGLVQAGGSLRLSCAASGGIFWVNAMGWYRQAPGKERELVAAISWSDDNTYYADSVKGRFTISRDNAKNTVYLQMNSLKPEDTAVYYCAKDFYDYGSFYWYEYWGQGTQVTVSS”, which “polyreactivity (PSR sort gate)” value is on record?
Its value is “high polyreactivity”.

With “QVQLVESGGGLVQAGGSLRLSCAASGSTFTSYAMGWYRQAPGKERELVAAITSRGGTSYADSVKGRFTISRDNAKNTVYLQMNSLKPEDTAVYYCAARATYKKYPYVKWYDYWGQGPQVTVSS” as the sequence, how does the “polyreactivity (PSR sort gate)” value read?
The value was “high polyreactivity”.

Which “polyreactivity (PSR sort gate)” value does the source give for “QVQLVESGGVLVQAGGSLRLSCAASGSIYRYYAMGWYRQAPGKERELVAAISWRGGSTYYADSVKGRFTISRDNAKNPVYLQMNSLKPEDTAVYYCAAELWVGTYGEYDYWGQGTQVTVSS” here?
The value was “low polyreactivity”.

Which “polyreactivity (PSR sort gate)” value does the source give for “QVQLVESGGGLVQAGGSLRLTCAASGSIFYLYAMGWYRQAPGKETELVAAISRTGSTYADSVKGRFTISRDNAKKTVYLQMNSLKPEDTAVYYCAAEYRYYWYGTMNYWGQGTQVTVSS” here?
The value was “low polyreactivity”.

Which “polyreactivity (PSR sort gate)” value does the source give for “QVQIVESGGGLVQAGGSLRLSCAASGRTFGVYAMGWYRQAPAKESTYYADSVKGRFTISRDNAKNTVYLQMNSLKPEDTAVYYCNARGGFGYITMDYWGQGTQVTVSS” here?
The value was “low polyreactivity”.

With “QVQLVESGGGLVQAGGSLRLICAACGFTLTGYTMGWYRQAPGKERELVAAITSRGGTTYYADSVKGRFTISRDNAKYTVYLQMNSLKPEDTAVYYCNVVYPYLEYDYWGQGTQVTVSS” as the sequence, how does the “polyreactivity (PSR sort gate)” value read?
The value was “high polyreactivity”.

With “QVQLVESGGGLVQAGGSLRLSCAASGITFYRYAMGWYRQAPGKERELVAAISWSGGRTYYADSVKGRFTISRDNAKNTVYLQMNSLKPEDTAVYYCNAYLYPYTRLDYWGQGTQVTVSS” as the sequence, how does the “polyreactivity (PSR sort gate)” value read?
Its value is “high polyreactivity”.

For “QVQLVESGGGLVQAGGSLRLSCAASGRIFDYNTMGWSRQAPGKERELVAAITGGTGSTYYADSVKGRFTISRDNAKNTVYLQMNSLKPEDTAVYYCAAGFHKRVTPEILYDYWGQGTQVTVSS”, which “polyreactivity (PSR sort gate)” value is on record?
The value was “low polyreactivity”.

With “QVQLVESGGGLVQAGGSLSLSCAASGITLYWYAMRWYIQAPGKERELVATINWSGGSTYYADSVKGRFTISRDNAKNTVYLQMNSLKPEDTAVYYCNVDYSDEGMGYWGQGTQVTVSS” as the sequence, how does the “polyreactivity (PSR sort gate)” value read?
The value was “low polyreactivity”.

With “QVQLVESGGGLVQAGGSLRLSSAASGSTFEYNAMGWYRQAPGKERELVASSTNYADSVKGRFTISRDNAKNTVYLQMNSLKPEDTAVYYCAREQGVNRNHDYWGQGTQVTVSS” as the sequence, how does the “polyreactivity (PSR sort gate)” value read?
The value was “low polyreactivity”.

For “QVQLVESGGGLVQAGGSLRLSCAASGSTLVKYAMGWYRQAPGKERELVAAISWSGGRTYYADSVKGRFTISRDNAKNNVYLQMNSLKPEDTAVYYCAARRKAVRYDYWGQGTQVTVSS”, which “polyreactivity (PSR sort gate)” value is on record?
The value was “high polyreactivity”.

Which “polyreactivity (PSR sort gate)” value does the source give for “QVQLVESGGGLVQAGGSLRLSCAASGSTFGTYAMGWYRQAPGKERELVAAITSGDNTYYADSVKGRFTISRDNAKNTVYLPMNSLKPEDTAVYYCAKDYNRYYWPWVIRGYDYWGQGTHVTVSS” here?
The value was “low polyreactivity”.

With “QVQLEDSGGGLVQAGGSLRLSCAASGSTFPLNAMGWYRQAPGKERELVASINFGGGTTYYADSVKGRFTISRDNAMNTVYLQMNSLKPEDTAVYYCAADVYQEFGYWGQGTQVTVSS” as the sequence, how does the “polyreactivity (PSR sort gate)” value read?
Its value is “high polyreactivity”.

With “QVQLVESGGGLVQAGGSLRLSCAASGRIFAHNAMGWYRQPPGKARELVAAITWSGGSTYYADSVKGRFTISRDNAKKTVYLQMNSLNPEDTAVYYCNNDSHGHLYNYWGQGTQVCVSS” as the sequence, how does the “polyreactivity (PSR sort gate)” value read?
The value was “low polyreactivity”.

With “QVQLVESGGRLVQAGGSLRLSCAASGRIFNYYDMGWYSQAPGKERELVAAINYSGGSTYYADSVKGRFTISRDNAKNTVSLQMNSLKAEDTAVYYCAADGYYYYCYGTTDQDDYWGLGTQVTVSS” as the sequence, how does the “polyreactivity (PSR sort gate)” value read?
Its value is “low polyreactivity”.

With “QVQLVESGGGLVQAGGSLRLSCAASGSIFYQNARGWYRQAPGKERELVAAISISDGSTYYADSVNGRFTISRDNAKNTVYLQMNILKPEDTAVYYCNADSLYYDPYDYWGQGTQVTVSS” as the sequence, how does the “polyreactivity (PSR sort gate)” value read?
Its value is “low polyreactivity”.

For “QVQLVESGGGLVQAGGSLRLSCAASGSTFTYNARGWYRQAPGKERELVAVIRPGGTTNYADSVKGRFTISRDNAKNTVYLQMNSLKPEDTAVYYCAKFFGNYSIYDYWGQGTQVTVSS”, which “polyreactivity (PSR sort gate)” value is on record?
Its value is “low polyreactivity”.

For “QVQLVESGGGLVQAGGSLRLSCAASGIIFDEYAMGWYIQAPGKERELVAAITRDGGTNYADSVKGRFTISRDNAKNTVYLQMNSLKPEDTAVYYCAKRAYFYYGRYDYWGQGTQVTVSS”, which “polyreactivity (PSR sort gate)” value is on record?
The value was “low polyreactivity”.

For “QVQLQESGGGLVQAGGSLRLSSAASGSIFKVVDMGLYRQAPAKEREFVATIGEGGNTYYADSVKGRFTMSRDNAKNTVYLQKNSLKPEDTALYFYAVVLGTSYRYTYWGQGTQVTVSS”, which “polyreactivity (PSR sort gate)” value is on record?
The value was “low polyreactivity”.

For “QVQLVESGGGLVQAGGSLRLSCAASGSTFVGYAMGWYRQAPGKERELVAAISGSGTSTYYADSVKGRFTISRDNAKNTVYLQMNSLKPEDTAVYYCNADPIFVYSSYNYWGQGTQVTVSS”, which “polyreactivity (PSR sort gate)” value is on record?
The value was “low polyreactivity”.

Which “polyreactivity (PSR sort gate)” value does the source give for “QVQLVESGGGLVQAGGSLRLSCAASGFTFSDYAMGSNRQAPGKERELVAAITSRTGTTYYADSVKWRFTISRDNAKNTVYLQMNSLKPEDTAVYYCNKVKFRSQDMDYWGQGTQVTVSS” here?
Its value is “high polyreactivity”.

Which “polyreactivity (PSR sort gate)” value does the source give for “QVQLVESGGGFVQAGGSLRLSCAASGFTFQYYGMGWYRQAPGKERELVAAINWSGGRTYYADSVKGRFTISRDNAKNTVYLQMNSLKPEDTAVYYCAATRSFSGGYGYVSYDYWGQGTQVTVSS” here?
The value was “high polyreactivity”.

With “QVQLVESGGGLVQAGGSLRLSCAASGYTFRYYAMGWYRQAPGKERELVAAITWSGGSTYYADSVKGRFTISRDNAKNTVYLQMNSLKPEDTAVYYCATDSARVGNFPDPQFDYWGQGTQVTVSS” as the sequence, how does the “polyreactivity (PSR sort gate)” value read?
The value was “low polyreactivity”.

For “QVQLVESGGGLVQAGGSLRLSCAASGRTFDRDAKGWYRQAPGKERELVAVIRFIGGSTYYAYSVKGRFTISRDNAKNTVFLQMNSLKQEDTAVYDCATRGPIWGQRYYKGYYWGQGTQVTVSS”, which “polyreactivity (PSR sort gate)” value is on record?
Its value is “low polyreactivity”.

Which “polyreactivity (PSR sort gate)” value does the source give for “QVQLVESGGGLVQAGGSLRLSCAASGLTFRYYGMGWYRQAPGKERELVAAITSSGGSTRYADSVKGRFTISRDNAKNTVYLQMNSLKPEDTAVYYCAASTWYGYDYWGQGTQVTVSS” here?
The value was “high polyreactivity”.

With “QVQLVESGGGLVQAGGSLRLSCAASGSTFPVNTMGWYRQAPGKERELVAAITKNGANTYYADSVKGRFTISRDNAKNTVYLQMNSLKPEDTADYYCAARYVYGKSYSRWLVELDYWGQGTQVTVSS” as the sequence, how does the “polyreactivity (PSR sort gate)” value read?
Its value is “low polyreactivity”.

Which “polyreactivity (PSR sort gate)” value does the source give for “QVQLVESGGGLVQAGGSLRLSCAASGRIFKYYVMGWYRQAPGKERELVAGISSSGGSTYYADSVKGRFTISRDNAKNTVYLQMNSLKPEDTAVYYCAADYTFAYYNVKMDYWGQGTQVTVSS” here?
Its value is “low polyreactivity”.

With “QVQLVESGGGLVQAGGSLRLSCAASGLIFRTYAMGWYRQAPGKERELVAAISSSGGSTYYADSVKGRFTISRDNAKNTVYLQMNSLKPEDTAVYYCNVGSRRRRYLDRYEYWGQGTQVTVSS” as the sequence, how does the “polyreactivity (PSR sort gate)” value read?
The value was “high polyreactivity”.

— the nanobody polyreactivity screen of Harvey et al. (2022)
